Measurements published in the supplement of paper PMC7877785.
± gives the uncertainty stated by the source.

Test: self-splicing fitness, log relative to wild type (ln ratio); higher = more splicing; Tetrahymena group I intron in knt gene, E. coli kanamycin selection, DiMSum; sequences stand for … in CUCUCU…GGAGGGAAAAGUUAUCAGGCAUGCACCUGGUAGCUAGUCUUUAAACCAAUAGAUUGCAUCGGUUUAAAAGGCAAGACCGUCAAAUUGCGGGAAAGGGGUCAACAGCCGUUCAGUACCAAGUCUCAGGGGAAACUUUGAGAUGGCCUUGCAAAGGGUAUGGUAAUAAGCUGACGGACAUGGUCCUAACCACGCAGCCAAGUCCUAAGUCAACAGAUCUUCUGUUGAUAUGGAUGCAGUUCACAGACUAAAUGUCGGUCGGGGAAGAUGUAUUCUUCUCAUAAGAUAUAGUCGGACCUCUCCUUAAUGGGAGCUAGCGGAUGAAGUGAUGCAACACUGGAGCCGCUGGGAACUAAUUUGUAUGCGAAAGUAUAUUGAUUAGUUUUGGAGUACUCGUGGUCG
How it was run: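 Colonies from six replicate transformations of E. coli BL21(DE3) were pooled and amplicon-sequenced on an Illumina HiSeq 2500. The library placed an intron with all eight P1ex-region nucleotides randomised inside the knt kanamycin-resistance gene on pET-22b(+), and cells grew overnight at 37°C or 30°C on LB agar with or without 25 μg/mL kanamycin (plus 100 μg/mL carbenicillin, 50 μM IPTG, 0.2% rhamnose). Fitness is the DiMSum error-weighted combination of wild-type-normalised replicate fold changes, kanamycin versus none.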

| Sequence | self-splicing fitness (ln) (30 °C) | self-splicing fitness (ln) (37 °C) |
| --- | --- | --- |
| CCACAGCAAUAUUACGGUGG | -4.51 ± 0.17 | -2.28 ± 0.11 |
| CGUAAGCAAUAUUACGGGAA | -3.04 ± 0.41 | -1.9 ± 0.44 |
| CGCCAGCAAUAUUACGACAA | -2.46 ± 0.31 | -0.75 ± 0.15 |
| UCCGAGCAAUAUUACGUAGA | -2.09 ± 0.14 | -1.42 ± 0.2 |
| CGAGAGCAAUAUUACGUCCU | -2.98 ± 0.39 |  |
| CCUUAGCAAUAUUACGAAGU | -2.21 ± 0.15 | -1.93 ± 0.12 |
| UAGGAGCAAUAUUACGGUUU | -3.54 ± 0.3 | -3.45 ± 0.39 |
| CAGUAGCAAUAUUACGGGAG | -2.37 ± 0.18 | -1.91 ± 0.27 |
| CAAGAGCAAUAUUACGAGUA |  | -1.56 ± 0.27 |
| UUUUAGCAAUAUUACGUUAA | -2.45 ± 0.37 | -2.52 ± 0.48 |
| UGCAAGCAAUAUUACGUGCU | -2.02 ± 0.1 | -0.559 ± 0.094 |
| GACCAGCAAUAUUACGCACG | -0.677 ± 0.067 | -0.895 ± 0.095 |
| GAACAGCAAUAUUACGUCGU | -1.5 ± 0.065 | -0.479 ± 0.078 |
| ACGCAGCAAUAUUACGGUCU | -0.587 ± 0.049 | 0.0141 ± 0.056 |
| UGGCAGCAAUAUUACGGCUU | -0.209 ± 0.075 | 0.316 ± 0.098 |
| AGAGAGCAAUAUUACGUGAC |  | -1.43 ± 0.42 |
| GAGCAGCAAUAUUACGCCUU | -3.8 ± 0.32 | -1.32 ± 0.19 |
| CUACAGCAAUAUUACGAUUC | -4.31 ± 0.43 | -1.6 ± 0.24 |
| ACUAAGCAAUAUUACGUGUG | -2.18 ± 0.07 | -1.06 ± 0.076 |
| AAACAGCAAUAUUACGAGAC | -3.96 ± 0.25 | -2.66 ± 0.25 |
| UGUAAGCAAUAUUACGACAG | -1.29 ± 0.11 | -0.146 ± 0.13 |
| CUGGAGCAAUAUUACGACGU |  | -1.09 ± 0.2 |
| GAAUAGCAAUAUUACGGUCA | -0.00851 ± 0.072 | -0.154 ± 0.077 |
| GUAUAGCAAUAUUACGUGUC | -4.58 ± 0.39 | -1.42 ± 0.14 |
| CUACAGCAAUAUUACGCCCU | -3.11 ± 0.2 | -2.85 ± 0.29 |
| AGCGAGCAAUAUUACGAACA | -2.63 ± 0.23 | -1.89 ± 0.2 |

| Sequence | self-splicing fitness (ln) (30 °C) | self-splicing fitness (ln) (37 °C) |
| --- | --- | --- |
| UGACAGCAAUAUUACGUUUG | -2 ± 0.071 | -1.03 ± 0.081 |
| UUGGAGCAAUAUUACGCUUA | -2.03 ± 0.16 | -2.35 ± 0.23 |
| AGCGAGCAAUAUUACGAUAA |  | -2.17 ± 0.24 |
| CGGCAGCAAUAUUACGAGAC | -3.78 ± 0.22 | -3.43 ± 0.35 |
| CUUGAGCAAUAUUACGAGAA | -2.73 ± 0.4 |  |
| CCGAAGCAAUAUUACGCGGG | -3.3 ± 0.19 | -2.62 ± 0.24 |
| GACCAGCAAUAUUACGUUAA | -1.13 ± 0.093 | -0.35 ± 0.1 |
| CUGAAGCAAUAUUACGGGGC | -3.24 ± 0.21 | -2.56 ± 0.27 |
| GUAGAGCAAUAUUACGUCUG | -1.6 ± 0.15 | -1.58 ± 0.21 |
| UAAAAGCAAUAUUACGGUAC | -3.76 ± 0.16 | -1.42 ± 0.16 |
| UUCCAGCAAUAUUACGAGGA | -1.83 ± 0.19 | -0.64 ± 0.22 |
| UAAAAGCAAUAUUACGGCCU | -0.961 ± 0.1 | -0.4 ± 0.12 |
| UAACAGCAAUAUUACGAGAC | -4.18 ± 0.26 | -2.78 ± 0.29 |
| UUAUAGCAAUAUUACGACCG | -0.514 ± 0.16 | 0.446 ± 0.22 |
| GACAAGCAAUAUUACGUCCA | -2.8 ± 0.14 | -1.42 ± 0.13 |
| UUUUAGCAAUAUUACGUAGG | -1.99 ± 0.11 | -0.229 ± 0.13 |
| CAGAAGCAAUAUUACGAGGG | -2.99 ± 0.23 | -1.18 ± 0.31 |
| ACGCAGCAAUAUUACGUUGC | -2.7 ± 0.1 | -2.75 ± 0.16 |
| CGUUAGCAAUAUUACGCAAU |  | -1.02 ± 0.23 |
| AUGCAGCAAUAUUACGAUCG | -1.8 ± 0.084 | -1.16 ± 0.11 |
| UGAGAGCAAUAUUACGGAUU | -3.39 ± 0.29 |  |
| CGAGAGCAAUAUUACGACAA | -1.65 ± 0.39 |  |
| ACAUAGCAAUAUUACGAGGC | -4.03 ± 0.36 | -2.2 ± 0.32 |
| CUAAAGCAAUAUUACGUUAG | -2.33 ± 0.093 | -1.77 ± 0.1 |
| UAGAAGCAAUAUUACGCCCA | -0.128 ± 0.15 | 0.21 ± 0.25 |
